Reference: publication PMC7951975

Biological target: GraS (native), fused to the T18 fragment of adenylate cyclase (Staphylococcus aureus) (UniProt Q2G0D9)
UniProt Q2G0D9, sequence (Q2G0D9 whole entry, the tested form may be a part): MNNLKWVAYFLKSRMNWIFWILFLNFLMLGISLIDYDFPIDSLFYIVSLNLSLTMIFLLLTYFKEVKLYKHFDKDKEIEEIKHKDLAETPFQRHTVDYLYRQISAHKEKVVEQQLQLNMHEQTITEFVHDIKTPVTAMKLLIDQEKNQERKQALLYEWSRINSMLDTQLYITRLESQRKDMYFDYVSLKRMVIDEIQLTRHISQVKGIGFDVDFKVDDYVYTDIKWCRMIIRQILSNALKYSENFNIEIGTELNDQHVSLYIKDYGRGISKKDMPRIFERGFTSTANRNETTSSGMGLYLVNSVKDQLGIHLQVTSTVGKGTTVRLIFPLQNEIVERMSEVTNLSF

“EL peptide of VraG (wild type) (domain or fragment)” was tested, and the survival of the ΔEL vraG mutant of JE2 in a 2-hr. killing assay with 2.5 μg/ml LL-37 in the presence of ~300 ng exogenous EL peptide was 40%.
